Results published in patent US20240158515A1 (Regeneron, published 2024).

T1: murine FGFR3b expressed with a C-terminal myc-myc-hexahistidine tag (mFGFR3b.mmH) (murine)
T1 construct: also called REGN3215; monomeric murine FGFR3b
T1 chain: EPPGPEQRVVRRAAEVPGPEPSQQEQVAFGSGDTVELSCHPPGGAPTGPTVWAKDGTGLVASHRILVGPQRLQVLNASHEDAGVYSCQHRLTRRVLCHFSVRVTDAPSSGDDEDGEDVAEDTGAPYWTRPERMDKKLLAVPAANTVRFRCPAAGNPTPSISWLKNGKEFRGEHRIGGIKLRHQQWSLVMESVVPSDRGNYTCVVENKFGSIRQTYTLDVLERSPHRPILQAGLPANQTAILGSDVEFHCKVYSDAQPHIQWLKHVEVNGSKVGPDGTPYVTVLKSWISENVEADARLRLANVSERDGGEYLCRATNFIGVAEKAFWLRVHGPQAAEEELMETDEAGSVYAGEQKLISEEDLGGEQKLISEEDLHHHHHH

T2: human FGFR3b expressed with a C-terminal murine Fc tag (hFGFR3b.mFc) (human)
T2 construct: called dimeric; also called REGN3153; dimeric human FGFR3b
T2 chain: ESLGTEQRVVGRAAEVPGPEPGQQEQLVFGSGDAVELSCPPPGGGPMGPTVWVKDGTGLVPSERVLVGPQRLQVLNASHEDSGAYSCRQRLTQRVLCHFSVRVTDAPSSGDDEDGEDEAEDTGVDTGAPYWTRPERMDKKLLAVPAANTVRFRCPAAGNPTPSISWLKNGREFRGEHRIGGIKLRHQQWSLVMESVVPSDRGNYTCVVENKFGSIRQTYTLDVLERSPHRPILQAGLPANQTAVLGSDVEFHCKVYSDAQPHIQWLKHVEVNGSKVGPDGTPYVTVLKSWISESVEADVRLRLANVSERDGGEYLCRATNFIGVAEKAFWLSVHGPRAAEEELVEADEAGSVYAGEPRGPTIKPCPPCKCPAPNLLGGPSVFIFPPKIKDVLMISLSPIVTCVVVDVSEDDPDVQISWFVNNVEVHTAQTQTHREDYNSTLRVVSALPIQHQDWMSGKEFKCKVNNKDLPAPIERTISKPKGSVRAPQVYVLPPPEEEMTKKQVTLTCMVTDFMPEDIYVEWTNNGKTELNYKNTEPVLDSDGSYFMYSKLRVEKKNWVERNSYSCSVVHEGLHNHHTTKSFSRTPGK

T3: cynomolgus FGFR3b expressed with a C-terminal myc-myc-hexahistidine tag (mfFGFR3b.mmH) (cynomolgus)
T3 construct: also called REGN3521; mf FGFR3b ecto (R357G)(E23-G377;R357G).mmH
T3 chain: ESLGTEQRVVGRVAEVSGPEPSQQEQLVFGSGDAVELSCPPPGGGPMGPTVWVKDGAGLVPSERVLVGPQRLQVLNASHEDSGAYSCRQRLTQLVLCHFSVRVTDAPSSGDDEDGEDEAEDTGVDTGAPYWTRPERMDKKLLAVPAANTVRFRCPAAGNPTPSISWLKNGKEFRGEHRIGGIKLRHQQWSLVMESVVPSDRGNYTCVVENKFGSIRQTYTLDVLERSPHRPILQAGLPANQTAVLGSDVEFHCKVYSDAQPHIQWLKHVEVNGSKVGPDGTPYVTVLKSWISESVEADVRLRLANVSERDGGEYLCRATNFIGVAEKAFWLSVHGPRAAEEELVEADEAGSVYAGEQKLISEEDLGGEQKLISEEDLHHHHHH

T4: human FGFR3b expressed with a C-terminal myc-myc-hexahistidine tag (hFGFR3b.mmH) (human)
T4 construct: also called REGN3152; monomeric human FGFR3b
T4 chain: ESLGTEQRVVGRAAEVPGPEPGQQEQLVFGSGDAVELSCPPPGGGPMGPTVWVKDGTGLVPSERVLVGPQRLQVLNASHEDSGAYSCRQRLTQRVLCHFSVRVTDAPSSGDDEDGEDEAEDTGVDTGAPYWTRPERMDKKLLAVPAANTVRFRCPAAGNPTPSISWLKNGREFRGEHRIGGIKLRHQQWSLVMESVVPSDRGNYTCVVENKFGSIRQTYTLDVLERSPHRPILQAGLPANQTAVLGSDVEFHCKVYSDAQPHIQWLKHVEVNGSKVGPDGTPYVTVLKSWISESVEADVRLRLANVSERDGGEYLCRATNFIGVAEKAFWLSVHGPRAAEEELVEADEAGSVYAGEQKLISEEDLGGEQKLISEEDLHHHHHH

T5: hFGFR3c-hFc (human, UniProt P22607 23-375)
T5 construct: range 23-375; Bought (R&D Systems); also called dimeric human FGFR3c; R&D Systems 766-FR-050; not shown: Fc portion of human IgG1, amino acids Pro100-Lys330
T5 sequence (looked up): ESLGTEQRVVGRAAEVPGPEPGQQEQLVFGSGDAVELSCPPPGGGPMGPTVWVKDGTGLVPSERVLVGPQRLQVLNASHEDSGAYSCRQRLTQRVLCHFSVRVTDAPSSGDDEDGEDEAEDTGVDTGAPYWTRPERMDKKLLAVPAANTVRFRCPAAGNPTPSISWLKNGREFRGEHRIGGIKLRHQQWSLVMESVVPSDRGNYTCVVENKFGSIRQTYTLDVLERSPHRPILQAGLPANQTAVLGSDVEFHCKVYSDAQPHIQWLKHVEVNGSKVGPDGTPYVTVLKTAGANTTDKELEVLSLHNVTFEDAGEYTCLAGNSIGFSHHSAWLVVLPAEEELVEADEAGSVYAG


Assays:
[1] = target: T1, murine FGFR3b expressed with a …; assay: SPR Biacore, mAb captured on anti-hFc, 25C; row marked NB
Procedure: (§1) The CM5 Biacore sensor surface was derivatized by amine coupling with a monoclonal mouse anti-human Fc monoclonal antibody (REGN2567). […] Antibody-reagent association was monitored for 5 minutes while dissociation in HBS-EP running buffer was monitored for 10 minutes. At the end of each cycle, the anti-FGFR3 antibody capture surface was regenerated using a 10 sec injection of 20 mM phosphoric acid. All binding kinetics experiments were performed at 25° C.
(§2) The specific SPR-Biacore sensorgrams were obtained by a double referencing procedure. The double referencing was performed by first subtracting the signal of each injection over a reference surface (anti-hFc) from the signal over the experimental surface (anti-hFc-captured anti-FGFR3 antibodies) thereby removing contributions from refractive index changes. In addition, running buffer injections were performed to allow subtraction of the signal changes resulting from the dissociation of captured antibodies from the coupled anti-hFc surface. Kinetic association (kₐ) and dissociation (kd) rate constants were determined by fitting the real-time sensorgrams to a 1:1 binding model using Scrubber v2.0c curve fitting software.

[2] = target: T6, human FGFR3c expressed with a C-terminal myc-myc-hexahistidine tag (hFGFR3c.mmH) (human, UniProt P22607 23-375); assay: SPR Biacore, mAb captured on anti-hFc, 25C
T6 construct: also called REGN3155; monomeric human FGFR3c
Procedure: as §1, §2

[3] = target: T2, human FGFR3b expressed with a …; assay: SPR Biacore, mAb captured on anti-hFc, 25C
Procedure: as §1, §2

[4] = target: T1, murine FGFR3b expressed with a …; assay: SPR Biacore, mAb captured on anti-hFc, 25C
Procedure: as §1, §2

[5] = target: T3, cynomolgus FGFR3b expressed with a …; assay: SPR Biacore, mAb captured on anti-hFc, 25C
Procedure: as §1, §2

[6] = target: T4, human FGFR3b expressed with a …; assay: SPR Biacore, mAb captured on anti-hFc, 25C
Procedure: as §1, §2

[7] = target: T2, human FGFR3b expressed with a …; assay: competition ELISA: 4 nM hFGFR3b-mFc binding to plate-coated hFGF acidic
Procedure: (§3) The fixed concentration of hFGFR3b or hFGFR3c proteins was selected to be near the concentration that generated 50% of the maximal binding (EC₅₀ value) to plate-adhered hFGF acidic or hFGF basic protein. […] The plates were then developed using TMB substrate solution (BD Biosciences) according to the manufacturer's recommended procedure and absorbance at 450 nm was measured on a Victor X5 plate reader.
(§4) Binding data were analyzed using a sigmoidal (four-parameter logistic) dose-response model using GraphPad Prism software. […] Percent blocking of FGFR3 antibody at a given concentration was calculated based on the formula shown below.
(§5) The ability of anti-FGFR3 antibodies to block human FGFR3b binding to hFGF acidic protein or hFGFR3c binding to hFGF acidic or hFGF basic proteins was evaluated using a sandwich ELISA-based blocking assay.

hFGFR3c-hFc [8] = target: T5, hFGFR3c-hFc; assay: competition ELISA: 7 nM hFGFR3c-hFc binding to plate-coated hFGF basic
Procedure: as §3, §4, §5

hFGFR3c-hFc [9] = target: T5, hFGFR3c-hFc; assay: competition ELISA: 0.4 nM hFGFR3c-hFc binding to plate-coated hFGF acidic
Procedure: as §3, §4, §5

[10] = target: full length human FGFR3b on BaF3 cells (BAF3/FGFR3b, ACL11991) (human, UniProt P22607 23-808); assay: cell-based or functional assay

Binder	90 nM mFGFR3b.mmH Bind (RU) [1] [RU]	90 nM hFGFR3c.mmH Bind (RU) [2] [RU]	koff [2] [s⁻¹]	kon [2] [M⁻¹ s⁻¹]	t½ [2] [min]	30 nM hFGFR3b.mFc Bind (RU) [3] [RU]	koff [3] [s⁻¹]	kon [3] [M⁻¹ s⁻¹]	t½ [3] [min]	90 nM mfFGFR3b.mmH Bind (RU) [5] [RU]	Kd [5] [nM]	koff [5] [s⁻¹]	kon [5] [M⁻¹ s⁻¹]	t½ [5] [min]	90 nM hFGFR3b.mmH Bind (RU) [6] [RU]	koff [6] [s⁻¹]	kon [6] [M⁻¹ s⁻¹]	t½ [6] [min]	Kd [2] [nM]	Kd [6] [nM]	also measured
H4H30117P2 (antibody, human IgG4 S228P, kappa, V domains shown) VH: QVQLVQSGAEVKKPGSSVKVSCKASGDTFSNYVIGWVRQAPGQGLEWMGGIIPIFGTTNYAQQFQGRVTITTDESTSTAYMELSSLRSEDTAVYYCARDGNYGDYFDYWGQGTLVTVSS VL: not shown	0.9	166	0.00732	595000	1.6	337	0.000133	787000	87	148	15.8	0.0087	550000	1.3	178	0.0063	656000	1.8	–	–	binding result [4]: no binding (tested: 90 nM)
H4H30061P (antibody, human IgG4 S228P, kappa, V domains shown) VH: EVQLVESGGGLAQPGGSLKLSCEASGFTFSDSAMHWVRQASGKGLEWVGRIRSKANSYATGYAASVKGRFTISRDDSKNMAFLEMNSLKTEDTAVYYCLRQTYGDPWGQGTLVTVSS VL: DVVMTQSPLSLSVTLGQPASISCRSSLSLVYSDGNNYLNWFQQRPGQSPRRLLYKVFNRDSGVPDRFSGSGSGTDFTLKISRVEAEDVGVYYCMQGTHWPWTFGQGTKVEIKR	-8.5	204	7.92e-05	151000	146	260	≤ 1e-05	231000	≥ 1160	197	0.65	9.83e-05	151000	118	249	8.74e-05	173000	132	0.526	0.506	Kd [3]: ≤ 0.0433 nM
REGN6331 (antibody, human IgG1, kappa, V domains shown, hIgG1 comparator; also called COMP6331; anti-FGFR3-hIgG1 comparator) VH: EVQLVESGGGLVQPGGSLRLSCAASGFTFTSTGISWVRQAPGKGLEWVGRIYPTSGSTNYADSVKGRFTISADTSKNTAYLQMNSLRAEDTAVYYCARTYGIYDLYVDYTEYVMDYWGQGTLVTVSS VL: DIQMTQSPSSLSASVGDRVTITCRASQDVDTSLAWYKQKPGKAPKLLIYSASFLYSGVPSRFSGSGSGTDFTLTISSLQPEDFATYYCQQSTGHPQTFGQGTKVEIKR	–	39.6	–	–	8.77	–	–	–	–	–	–	–	–	–	58.4	–	–	18.8	2.42	0.697	% Blocking at 200 nM mAb [7]: 99%; IC50 [7]: 1.5 nM; IC50 (hFGFR3c-hFc [8]): 8.9 nM; IC50 (hFGFR3c-hFc [9]): 0.1 nM; IC50 [M], BaF3 proliferation (CellTiter-Glo) with 1 nM FGF1 + 5 ug/ml heparin [10]: 5.79e-11 M; Max Blocking (%), BaF3 proliferation (CellTiter-Glo) with 1 nM FGF1 + 5 ug/ml heparin [10]: 97.6%
H4H30045P (antibody, human IgG4 S228P, kappa, V domains shown, HCVR 179, LCVR 187) VH: QVQLVQSGAEVKKPGASVKVSCKTSGYRFVNYGFSWVRQAPGQGLEWMGWISPYNGNTNYIQNLQDRITMTTDTSTNTAYMELTNLRSDDTAVYYCATLTGVHFDYWGQGTLVTVSS VL: AIQMTQSPSSLSASVGDRVTITCRASQGIRNDLGWYQQKPGKAPNLLIFETSRLQSGVPSRFSGSGSGTDFTLTINSLQPEDFATYYCLQDYNYPWTFGQGTKVEIKR	2.4	77.1	0.00746	381000	1.5	266	0.000161	277000	71.8	71.9	20.6	0.00882	429000	1.3	124	0.00624	385000	1.9	19.6	16.2	Kd [3]: 0.581 nM; binding result [4]: no binding (tested: 90 nM)
